The values that follow come from PMC9078203.

Where two headings read alike, the source gives them in different places.

Assay [1] has as its target DIP-α (D. melanogaster) (UniProt Q9W4R3). Kind of assay: SPR. (Surface plasmon resonance follows binding to a sensor surface in real time, without labels.)
The target is the same in assay [2]. Kind of assay: SPR. The source holds these as a separate data set.
In assay [3] the target is DIP-α G74A (D. melanogaster) (UniProt Q9W4R3). In words: SPR.
Assay [4] deals with DIP-α K81Q (D. melanogaster) (UniProt Q9W4R3). In words: AUC.
The target in assay [5] is DIP-α K81Q G74S (D. melanogaster) (UniProt Q9W4R3). In words: AUC.
Assay [6] has as its target DIP-α K81Q (D. melanogaster) (UniProt Q9W4R3). Kind of assay: SPR.
A further assay deals with DIP-β (D. melanogaster). In words: SPR.
In assay [7] the target is DIP-α K81Q G74S (D. melanogaster) (UniProt Q9W4R3). In words: SPR.
For the next assay, the target named is DIP-γ (D. melanogaster). In words: SPR.
Assay [8] addresses DIP-α G74A (D. melanogaster) (UniProt Q9W4R3). Kind of assay: AUC.

A word on the Kd: it is the constant that tells how readily two partners part at equilibrium. As to “Dpr10 Q138D (from UniProt Q9VT83 1-408) (natural protein)”, the Kd worked out at 27.6 µM with DIP-α (D. melanogaster) [1] and 27.8 µM with DIP-α (D. melanogaster) [2].

Consider “Dpr10 Q142M (from UniProt Q9VT83 1-408) (natural protein)”, for which the Kd in the assay with DIP-α (D. melanogaster) [1] was determined as 0.19 µM; in assay [3] it was 0.1 µM.

As usually defined, the stoichiometry N is a count of units in the complex or per binding partner. “DIP-α K81Q (from UniProt Q9W4R3 1-554) (natural protein)”: in assay [4], the Kd amounted to 19.6 µM and the stoichiometry N is 2.

In turn, “Dpr10 V144K (from UniProt Q9VT83 1-408) (natural protein)” came in with an equilibrium dissociation constant (Kd) with DIP-α (D. melanogaster) [1] of 11.3 µM.

Consider “DIP-α K81Q G74S (from UniProt Q9W4R3 1-554) (natural protein)”, for which, in assay [5], the Kd is 46 µM and the stoichiometry N came out at 2.

In the case of “Dpr10 (from UniProt Q9VT83 1-408) (natural protein)”, the Kd was 31.8 µM in assay [6]; 33 µM with DIP-β (D. melanogaster); 0.9 µM in assay [3]; 68 µM in [7]; more than 1000 µM in the assay with DIP-γ (D. melanogaster).

For “DIP-α G74A (from UniProt Q9W4R3 1-554) (natural protein)”, in assay [8], the dissociation constant (Kd) is 50 µM and the stoichiometry N turned out to be 2.

In the assay with DIP-α (D. melanogaster) [1], “Dpr10 V144K Q142E G99D (from UniProt Q9VT83 1-408) (natural protein)” returned a Kd of 50 µM.
